In patent US20240092889A1 (Chugai, published 2024):

T1: recombinant human C1r2s2 tetramer (human, UniProt P09871 16-688; P00736 18-705)
T1 construct: C1s and C1r co-expressed in HEK293/FreeStyle 293-F and purified from conditioned medium
T1 chain 1: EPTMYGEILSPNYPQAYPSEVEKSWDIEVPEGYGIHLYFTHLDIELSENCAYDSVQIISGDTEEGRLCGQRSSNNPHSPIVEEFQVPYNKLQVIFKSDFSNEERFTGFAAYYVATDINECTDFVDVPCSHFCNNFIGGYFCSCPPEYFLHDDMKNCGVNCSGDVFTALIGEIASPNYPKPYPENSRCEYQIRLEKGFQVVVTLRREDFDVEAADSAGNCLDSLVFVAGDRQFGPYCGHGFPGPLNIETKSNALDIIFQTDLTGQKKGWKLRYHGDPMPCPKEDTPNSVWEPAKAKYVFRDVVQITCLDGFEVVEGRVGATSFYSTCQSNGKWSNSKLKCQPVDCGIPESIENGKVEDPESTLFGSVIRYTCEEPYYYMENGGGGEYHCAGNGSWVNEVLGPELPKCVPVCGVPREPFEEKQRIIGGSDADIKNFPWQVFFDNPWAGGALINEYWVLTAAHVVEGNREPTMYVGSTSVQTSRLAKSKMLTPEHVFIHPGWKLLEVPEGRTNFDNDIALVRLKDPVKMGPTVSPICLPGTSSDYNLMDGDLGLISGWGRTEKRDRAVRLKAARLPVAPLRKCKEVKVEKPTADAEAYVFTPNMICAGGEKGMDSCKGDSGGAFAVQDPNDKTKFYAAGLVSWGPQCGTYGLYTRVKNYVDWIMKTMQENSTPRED
T1 chain 2: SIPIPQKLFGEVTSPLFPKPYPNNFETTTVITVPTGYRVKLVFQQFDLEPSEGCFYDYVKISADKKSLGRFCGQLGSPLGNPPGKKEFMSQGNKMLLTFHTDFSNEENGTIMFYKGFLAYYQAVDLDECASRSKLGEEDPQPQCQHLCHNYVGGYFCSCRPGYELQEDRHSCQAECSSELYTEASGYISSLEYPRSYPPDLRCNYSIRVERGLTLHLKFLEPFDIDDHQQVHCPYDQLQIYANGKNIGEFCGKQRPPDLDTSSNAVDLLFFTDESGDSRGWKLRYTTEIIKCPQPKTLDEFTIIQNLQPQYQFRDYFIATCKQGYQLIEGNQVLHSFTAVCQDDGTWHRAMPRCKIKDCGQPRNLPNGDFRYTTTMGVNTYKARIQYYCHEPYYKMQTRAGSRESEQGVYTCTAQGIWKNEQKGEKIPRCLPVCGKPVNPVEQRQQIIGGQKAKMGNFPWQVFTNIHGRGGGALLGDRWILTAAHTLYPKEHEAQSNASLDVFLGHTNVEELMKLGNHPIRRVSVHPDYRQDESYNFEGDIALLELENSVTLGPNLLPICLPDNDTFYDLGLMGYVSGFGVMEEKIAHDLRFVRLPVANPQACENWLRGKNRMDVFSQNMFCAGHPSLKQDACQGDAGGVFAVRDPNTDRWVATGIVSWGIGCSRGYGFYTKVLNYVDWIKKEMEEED


Legend:
[1] = biological target: T1, recombinant human C1r2s2 tetramer; experiment: SPR (BIACORE), antibody captured by ProL, human C1r2s2 injected at 100 nM, pH 7.4, 37 C; y axis Response/Capture
Method: Analysis of interaction between antibody variants and the human C1r2s2 prepared as mentioned above was carried out at pH7.4, at 37 degrees C. using BIACORE® T200 instrument (GE Healthcare) or BIACORE® 4000 (GE Healthcare). ProL (BioVision) was immobilized onto a CM4 sensorchip using amine coupling kit (GE Healthcare) according to the recommended settings by GE Healthcare. Antibodies and analytes were diluted into the respective running buffers, ACES pH7.4 (20 mM ACES (N-(2-Acetamido)-2-aminoethanesulfonic acid), 150 mM NaCl, 1.2 mM CaCl2, 1 mg/ml bovine serum albumin (BSA), 1 mg/ml CMD (CM-Dextran sodium salt), 0.05% Tween® 20 (polysorbate 20), 0.005 w/v % NaN3). Each antibody was captured onto the sensor surface by ProL. Antibody capture levels were aimed at 200 resonance units (RU). Then, recombinant human C1r2s2 was injected at concentrations of 25 and 100 nM followed by dissociation at pH7.4. The surface was regenerated using 10 mM Glycine-HCl, pH1.5.

[2] = biological target: T1, recombinant human C1r2s2 tetramer; experiment: SPR (BIACORE T200), 37 C, Ab captured via anti-human Ig kappa, human C1r2s2 as analyte, pH 7.4
Method: (§1) KD (dissociation constant) value of each samples at pH 7.4 and pH 5.8 are determined at 37 degrees C. using BIACORE® T200 instrument (GE Healthcare). Purified Mouse Anti-Human Ig kappa Light Chain (GE Healthcare) can be immobilized onto all flow cells of a CMS sensor chip using an amine coupling kit (GE Healthcare). 20 mM ACES, 150 mM NaCl, 1.2 mM CaCl2, 1 mg/mL BSA (IgG-free), 1 mg/mL CMD, 0.05% Tween® 20, 0.005% NaN3, pH 7.4 or pH 5.8 buffer were used as running buffer. Each antibody can be captured onto the sensor surface by Anti-Human Ig kappa Light chain. Antibody capture levels are aimed at 50 resonance unit (RU). […] Sensor surface is regenerated each cycle with, e.g., Glycine pH 2.0 (GE Healthcare). KD values were obtained using BIACORE® T200 Evaluation software, version 2.0 (GE Healthcare).

[3] = biological target: T1, recombinant human C1r2s2 tetramer; experiment: SPR (BIACORE T200), 37 C, ratio of KD at pH 5.8 to KD at pH 7.4
Method: as §1

[4] = biological target: T1, recombinant human C1r2s2 tetramer; experiment: SPR (BIACORE T200), 37 C, Ab captured via anti-human Ig kappa, human C1r2s2 as analyte, pH 5.8
Method: as §1

Binder | binding result [1] | Kd [2] [nM] | KD (pH 5.8)/KD (pH 7.4) [3] | Kd [4] [nM]
AL0737 (antibody, human IgG1, kappa, V domains shown, COS0637temp with VL C94W/C95dL (Kabat), already in the VL entry) VH: QVQLVESGGGVVQPGRSLRLSCAASGFTFSAYAMNWIRQPPGKGLEWIGLIYGSGSTFYASWAKGRVTISVDTSKNQFSLKLSSVTAADTAVYYCARGRSVNYNSDFHLWGQGTLVTVSS VL: DIQMTQSPSSLSASVGDRVTITCQASQSLHDKKNLAWYQQKPGQPPKLLIYGASTLESGVPSRFSGSGSGTDFTLTISSLQPEDFATYYCQGEFSWSSADLNTFGQGTKVEIKR | binds |  |  | 
AL0743 (antibody, human IgG1, kappa, V domains shown, COS0637temp with VL C94Y/C95dL (Kabat), already in the VL entry; template for further optimization) VH: QVQLVESGGGVVQPGRSLRLSCAASGFTFSAYAMNWIRQPPGKGLEWIGLIYGSGSTFYASWAKGRVTISVDTSKNQFSLKLSSVTAADTAVYYCARGRSVNYNSDFHLWGQGTLVTVSS VL: DIQMTQSPSSLSASVGDRVTITCQASQSLHDKKNLAWYQQKPGQPPKLLIYGASTLESGVPSRFSGSGSGTDFTLTISSLQPEDFATYYCQGEFSYSSADLNTFGQGTKVEIKR | binds |  |  | 
AL0744 (antibody, human IgG1, kappa, V domains shown, COS0637temp with VL C94W/C95dM (Kabat), already in the VL entry) VH: QVQLVESGGGVVQPGRSLRLSCAASGFTFSAYAMNWIRQPPGKGLEWIGLIYGSGSTFYASWAKGRVTISVDTSKNQFSLKLSSVTAADTAVYYCARGRSVNYNSDFHLWGQGTLVTVSS VL: DIQMTQSPSSLSASVGDRVTITCQASQSLHDKKNLAWYQQKPGQPPKLLIYGASTLESGVPSRFSGSGSGTDFTLTISSLQPEDFATYYCQGEFSWSSADMNTFGQGTKVEIKR | binds |  |  | 
COS0637pHv4-TT91R (antibody, V domains shown) VH: QVQLVESGGGVVQPGRSLRLSCAASGFSFSAYAMNWIRQPPGKGLEWIGLIYGSGHEFYASWAEERVTISVDTSKNQFSLKLSSVTAADTAVYYCARGRSKNYVSGFHLWGQGTLVTVSS VL: DIQMTQSPSSLSASVGDRVTITCQASQILHDKKNLAWYQQKPGQPPKLLIYQASQLESGVPSRFSGSGSGTDFTLTISSLQPEDFATYYCHGEFSYESADLNQFGQGTKVEIKR |  | 8.23 | 99 | 811
COS0637pHv6-TT91R (antibody, V domains shown) VH: QVQLVESGGGVVQPGRSLRLSCAASGFSFSAYAMNWIRQPPGKGLEWIGLIYGSGHEFYASWAEERVTISVDTSKNQFSLKLSSVTAADTAVYYCARGRSKNYVSGFHLWGQGTLVTVSS VL: DIQMTQSPSSLSASVGDRVTITCQAQQILHDKRNLAWYQQKPGQPPKLLIYQASQLESGVPSRFSGSGSGTDFTLTISSLQPEDFATYYCHGEFSYESADLNTFGQGTKVEIKR |  | 8.39 | 100 | 838
COS0637pHv8-TT91R (antibody, V domains shown) VH: QVQLVESGGGVVQPGRSLRLSCAASGFTFSAYAMNWIRQPPGKGLEWIGLIYGSGHEFYASWAEERVTISVDTSKNQFSLKLSSVTAADTAVYYCARGRSKNYNSDFHLWGQGTLVTVSS VL: DIQMTQSPSSLSASVGDRVTITCQANQILHDKKNLAWYQQKPGQPPKLLIYGASTLESGVPSRFSGSGSGTDFTLTISSLQPEDFATYYCHGEFSYSSADLNTFGQGTKVEIKR |  | 7.46 | 117 | 874
COS0637pHv9-TT91R (antibody, V domains shown) VH: QVQLVESGGGVVQPGRSLRLSCAASGFTFSAYAMNWIRQPPGKGLEWIGLIYGSGHEFYASWAEERVTISVDTSKNQFSLKLSSVTAADTAVYYCARGRSKNYNSDFHLWGQGTLVTVSS VL: DIQMTQSPSSLSASVGDRVTITCQANQILHDKKNLAWYQQKPGQPPKLLIYQASQRESGVPSRFSGSGSGTDFTLTISSLQPEDFATYYCHGEFPYESADLNTFGQGTKVEIKR |  | 3.48 | 45 | 157
COS0637temp-TT91R (antibody, COS0637h with K101H in HCDR3; CH TT91R, CL SK1) heavy: QVQLVESGGGVVQPGRSLRLSCAASGFTFSAYAMNWIRQPPGKGLEWIGLIYGSGSTFYASWAKGRVTISVDTSKNQFSLKLSSVTAADTAVYYCARGRSVNYNSDFHLWGQGTLVTVSSASTKGPSVFPLAPSSKSTSGGTAALGCLVKDYFPEPVTVSWNSGALTSGVHTFPAVLQSSGLYSLSSVVTVPSSSLGTQTYICNVNHKPSNTKVDKRVEPKSCDKTHTCPPCPAPEYLGGDSVFLFPPKPKDVLMISRTPEVTCVVIDVSHEDPEVKFNWYVDGVEVHNAKTKPREEQYNSTYRVVSVLPVLHRDWLNGKEYKCKVSNKALPKPIEKTISKAKGQRREPQVYTLPPSREEMTKNQVSLTCLVKGFYPSDIAVEWESNGQPENNYKTTPPVLDSDGSFFLYSKLTVDKSRWQQGNVFSCSVLHEALHAHTTRKELSLSP light: DIQMTQSPSSLSASVGDRVTITCQASQSLHDKKNLAWYQQKPGQPPKLLIYGASTLESGVPSRFSGSGSGTDFTLTISSLQPEDFATYYCQGEFSCSSADCNTFGQGTKVEIKRTVAAPSVFIFPPSDEQLKSGTASVVCLLNNFYPREAKVQWKVDNALQSGNSQESVTEQDSKDSTYSLSSTLTLSKADYEKHKVYACEVTHQGLSSPVTKSFNRGEC |  | 55 | 116 | 6390
